Experimental data taken from paper PMC6853979, “Structures of GapR reveal a central channel which could accommodate B-DNA”.
Each block holds one molecule with its values, some of them ahead of it.

Key:
[1] = molecular target: GapR (full length, Caulobacter crescentus) (Caulobacter crescentus); assay: SEC-MALS; 50 μl of GapR at 0.5 mM (calculated as tetramer), no DNA, Superdex-200 Increase 10 300 GL, SEC buffer (20 mM HEPES pH 7.4, 200 mM NaCl, 0.2 mM TCEP)
[2] = molecular target: GapR (full length, Caulobacter crescentus) (Caulobacter crescentus); assay: SEC; 6.25 μM protein (calculated as tetramer); GapR without and with 20 μM 19 bp DNA on Superdex 200 Increase 10 300 GL; GapR and GapR6KtoE on HiLoad 16/600 Superdex 200 pg against protein standards
[3] = molecular target: GapR (full length, Caulobacter crescentus) (Caulobacter crescentus); assay: crystal structure; GapR or GapRΔ1-11 crystallised with 19-bp dsDNA (DNA not seen in the maps), sitting drop, room temperature, ammonium sulfate and PEG 3350; tetramer formed by crystallographic symmetry
[4] = molecular target: GapRΔ1-11 (Caulobacter crescentus); assay: as above
GapR = molecular target: T1, GapR (Caulobacter crescentus, UniProt Q9A385 1-89); assay: EMSA; 0.425 uM tetramer, 1.7 uM DNA; EMSA: 10 mM Tris pH 7.5, 50 mM NaCl, 1 mM EDTA; 8% gel in 0.5x TBE pH 8.3 at 4 C; conditions: protein: recombinant; tags: N-terminal His8 cleaved by TEV (vector residues may remain); chain copies: 4; blunt
T1 sequence: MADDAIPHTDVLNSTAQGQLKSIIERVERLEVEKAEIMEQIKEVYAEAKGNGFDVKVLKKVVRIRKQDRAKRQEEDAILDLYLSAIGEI

- stoichiometry N [1]: 4
- stoichiometry N [2]: 4
- stoichiometry N [3]: 4
Molecule: GapR (full length, Caulobacter crescentus) (natural protein)

- stoichiometry N [4]: 4
Molecule: GapRΔ1-11 (domain or fragment)

B1: 19 bp oligonucleotide (19mer) (dsDNA)
DNA 1: GTTAAGCAACCGTTAACGG
DNA 2: CCGTTAACGGTTGCTTAAC
- binding result (GapR): binds
